Laboratory results taken from PMC10716376, “The assembly of the Mitochondrial Complex I Assembly complex uncovers a redox pathway coordination” (Nature Communications, 2023).

Legend:
Details in all cases: both partners purified
ACAD9_(A184S) = target: T1, ACAD9_(A184S) (human, UniProt Q9H845 38-621, A184S); experiment: dynamic light scattering; 278 K, protein at 1-2 mg/ml; complexes reconstituted at molar ratio 1:1.25
T1 construct: human ACAD9, residues 38-621, A184S (mimics the VLCAD gatekeeper loop); source: E. coli C43 (DE3), purified (HisTrap, dialysed in SEC buffer)
T1 sequence (looked up): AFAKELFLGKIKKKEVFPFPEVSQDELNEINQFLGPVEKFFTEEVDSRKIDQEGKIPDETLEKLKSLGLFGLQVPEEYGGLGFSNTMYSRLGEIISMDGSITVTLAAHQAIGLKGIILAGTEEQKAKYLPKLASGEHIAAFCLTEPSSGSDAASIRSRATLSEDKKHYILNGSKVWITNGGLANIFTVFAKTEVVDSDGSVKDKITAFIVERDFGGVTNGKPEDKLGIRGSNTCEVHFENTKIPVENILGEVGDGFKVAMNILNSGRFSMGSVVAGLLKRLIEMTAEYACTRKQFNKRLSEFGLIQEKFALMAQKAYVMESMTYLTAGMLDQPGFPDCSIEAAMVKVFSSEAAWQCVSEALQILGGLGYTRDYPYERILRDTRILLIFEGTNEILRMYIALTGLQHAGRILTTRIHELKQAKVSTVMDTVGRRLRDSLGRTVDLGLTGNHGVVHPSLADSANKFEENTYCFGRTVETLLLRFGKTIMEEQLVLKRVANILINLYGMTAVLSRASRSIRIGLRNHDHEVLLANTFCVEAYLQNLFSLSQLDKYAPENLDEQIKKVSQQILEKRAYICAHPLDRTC

ACAD9_(SR194TS) = target: T2, ACAD9_(SR194TS) (human, UniProt Q9H845 38-621, SR194TS); experiment: as above
T2 construct: human ACAD9, residues 38-621, double mutant SR194TS (mimics the VLCAD gatekeeper loop); source: E. coli C43 (DE3), purified (HisTrap, dialysed in SEC buffer)
T2 sequence (looked up): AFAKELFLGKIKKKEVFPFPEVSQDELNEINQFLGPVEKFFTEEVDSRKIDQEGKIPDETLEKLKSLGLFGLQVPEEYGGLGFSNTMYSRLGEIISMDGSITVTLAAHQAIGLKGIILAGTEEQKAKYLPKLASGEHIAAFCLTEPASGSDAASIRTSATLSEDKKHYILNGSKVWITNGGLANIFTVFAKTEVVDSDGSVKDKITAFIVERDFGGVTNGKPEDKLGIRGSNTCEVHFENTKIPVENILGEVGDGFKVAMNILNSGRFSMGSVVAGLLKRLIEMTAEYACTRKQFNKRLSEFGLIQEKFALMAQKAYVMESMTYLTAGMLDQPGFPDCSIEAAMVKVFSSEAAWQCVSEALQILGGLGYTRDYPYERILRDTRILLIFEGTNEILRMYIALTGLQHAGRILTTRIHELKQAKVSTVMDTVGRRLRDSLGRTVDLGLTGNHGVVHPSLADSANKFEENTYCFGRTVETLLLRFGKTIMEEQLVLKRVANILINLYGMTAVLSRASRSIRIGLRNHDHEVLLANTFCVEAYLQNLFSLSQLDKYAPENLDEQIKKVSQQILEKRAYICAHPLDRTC

ACAD9_(S191A) = target: T3, ACAD9_(S191A) (human, UniProt Q9H845 38-621, S191A); experiment: ITC; 25 °C; ACAD9 at 49 uM in the cell, titrated with ECSIT at 300 uM; 50 mM Tris-HCl pH 7.5, 250 mM NaCl
T3 construct: human ACAD9, residues 38-621, S191A; One FAD per protomer in the cryo-EM structure; source: E. coli C43 (DE3), purified (HisTrap, dialysed in SEC buffer)
T3 sequence (looked up): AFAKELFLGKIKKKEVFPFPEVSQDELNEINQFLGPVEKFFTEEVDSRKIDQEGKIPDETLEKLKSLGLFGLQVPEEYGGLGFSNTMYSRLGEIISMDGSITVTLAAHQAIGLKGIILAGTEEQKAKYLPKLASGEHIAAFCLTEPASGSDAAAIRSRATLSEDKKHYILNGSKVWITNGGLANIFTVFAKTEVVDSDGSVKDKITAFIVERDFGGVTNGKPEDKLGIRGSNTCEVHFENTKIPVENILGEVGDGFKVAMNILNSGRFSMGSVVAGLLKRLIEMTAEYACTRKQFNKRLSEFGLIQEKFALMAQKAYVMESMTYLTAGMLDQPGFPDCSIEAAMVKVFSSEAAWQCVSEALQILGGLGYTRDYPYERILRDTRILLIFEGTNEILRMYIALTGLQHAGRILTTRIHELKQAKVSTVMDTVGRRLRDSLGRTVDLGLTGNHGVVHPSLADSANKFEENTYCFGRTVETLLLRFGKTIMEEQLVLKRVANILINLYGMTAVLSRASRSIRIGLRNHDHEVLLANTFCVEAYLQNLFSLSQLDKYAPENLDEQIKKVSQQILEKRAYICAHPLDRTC

[1] = target: T4, ACAD9WT (mature ACAD9, residues 38-621) (human, UniProt Q9H845 38-621); experiment: cryo-EM structure; ACAD9WT-ECSIT_(CTER) reconstituted (molar ratio 1:1.25) and purified by gel filtration; 25 mM HEPES, 300 mM NaCl, 1 mM TCEP, pH 7.5; C2 symmetry imposed
T4 construct: human ACAD9, mature form, residues 38-621; E. coli codon-optimised synthetic gene; Cloned into pET-21d(+); Plasmid details are in Supplementary Data 1; source: E. coli C43 (DE3), purified (HisTrap, dialysed in SEC buffer)
T4 sequence (looked up): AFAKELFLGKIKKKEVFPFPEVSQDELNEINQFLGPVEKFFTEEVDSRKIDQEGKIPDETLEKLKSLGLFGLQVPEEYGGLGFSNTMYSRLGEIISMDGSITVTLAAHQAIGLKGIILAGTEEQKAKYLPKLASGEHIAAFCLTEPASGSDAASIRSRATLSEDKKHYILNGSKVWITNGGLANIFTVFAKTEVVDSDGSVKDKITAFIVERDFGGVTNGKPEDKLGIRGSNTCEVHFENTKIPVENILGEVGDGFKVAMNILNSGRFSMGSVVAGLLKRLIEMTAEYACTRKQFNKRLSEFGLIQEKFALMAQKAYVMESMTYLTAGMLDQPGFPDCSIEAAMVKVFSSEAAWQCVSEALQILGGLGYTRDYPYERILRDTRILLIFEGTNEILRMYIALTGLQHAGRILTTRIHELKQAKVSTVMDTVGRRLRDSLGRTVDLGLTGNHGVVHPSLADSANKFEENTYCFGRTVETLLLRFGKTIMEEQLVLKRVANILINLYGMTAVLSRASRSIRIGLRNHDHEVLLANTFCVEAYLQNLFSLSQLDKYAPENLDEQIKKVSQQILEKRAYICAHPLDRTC

ACAD9_(A184S/SR194TS) = target: T5, ACAD9_(A184S/SR194TS) (human, UniProt Q9H845 38-621, A184S | SR194TS); experiment: mass photometry; ACAD9 (or VLCAD) at 20-50 nM in 25 mM HEPES pH 7.5, 250 mM NaCl, or diluted in 4.8 uM ECSIT solution for complex formation
T5 construct: human ACAD9, residues 38-621, A184S and SR194TS combined (mimics the VLCAD gatekeeper loop); source: E. coli C43 (DE3), purified (HisTrap, dialysed in SEC buffer)
T5 sequence (looked up): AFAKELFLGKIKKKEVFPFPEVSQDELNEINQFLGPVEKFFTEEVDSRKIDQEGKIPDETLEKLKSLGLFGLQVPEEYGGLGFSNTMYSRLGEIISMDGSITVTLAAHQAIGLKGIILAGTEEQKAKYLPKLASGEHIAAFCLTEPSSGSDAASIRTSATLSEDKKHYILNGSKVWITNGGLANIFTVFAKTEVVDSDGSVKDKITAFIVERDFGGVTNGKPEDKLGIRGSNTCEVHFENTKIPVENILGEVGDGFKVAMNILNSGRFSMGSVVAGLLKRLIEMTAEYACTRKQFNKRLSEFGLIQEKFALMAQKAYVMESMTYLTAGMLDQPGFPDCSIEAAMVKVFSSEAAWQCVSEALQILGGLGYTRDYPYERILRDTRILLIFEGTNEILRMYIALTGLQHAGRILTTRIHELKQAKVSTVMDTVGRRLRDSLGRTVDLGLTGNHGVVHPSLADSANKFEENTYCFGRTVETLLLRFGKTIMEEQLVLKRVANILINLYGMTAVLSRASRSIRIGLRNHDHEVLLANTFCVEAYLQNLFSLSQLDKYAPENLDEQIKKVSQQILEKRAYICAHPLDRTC

B1: ECSIT_(CTER) (residues 221-431) (domain or fragment, human, UniProt Q9BQ95 221-431, looked up)
chain: QDPVELAMFGLRHMEPDLSARVTIYQVPLPKDSTGAADPPQPHIVGIQSPDQQAALARHNPARPVFVEGPFSLWLRNKCVYYHILRADLLPPEEREVEETPEEWNLYYPMQLDLEYVRSGWDNYEFDINEVEEGPVFAMCMAGAHDQATMAKWIQGLQETNPTLAQIPVVFRLAGSTRELQTSSAGLEEPPLPEDHQEEDDNLQRQQQGQS
notes: human ECSIT, residues 221-431; E. coli codon-optimised synthetic gene; Only residues 320-334 are modelled in the cryo-EM map; Plasmid details are in Supplementary Data 1; also called C-terminal ECSIT; source: E. coli BL21 Star (DE3), purified (HisTrap, SEC)
- binding result (ACAD9_(A184S)): binds
- binding result (ACAD9_(SR194TS)): binds
- Kd (ACAD9_(S191A)): 3.93 µM
- fold decrease in fold change against ACAD9WT-ECSIT_(CTER) (ACAD9_(S191A)): ~3 fold
- stoichiometry N [1]: 1 ECSIT_(CTER) per ACAD9 protomer
- binding result (ACAD9_(A184S/SR194TS)): binds
